The nature of series [1]: Mca-Ala-Pro-Lys(Dnp) hydrolysis, spectrofluorimetry. The settings on record: glycan lost; control: native rshACE2.
A further series is described as follows: SEC-MALS. The settings on record: glycan lost; control: native rshACE2. A general note: In gel filtration, larger molecules generally elute earlier.

For “rshACE2 (recombinant soluble human ACE2, APN01): PNGase F (deglyco-rshACE2)”, the “enzymatic_activity, percent_of_wt” value in series [1] is given as “increases”. Further, the oligomerisation entry in “SEC-MALS” was “no change”.
